The data set concerns the molecule itself. The experiment in a line: AUC; sedimentation velocity, Beckman XL-I, 20°C, 30 000-37 000 RPM, TME-SO4 (50 mM Tris, 1 mM MgSO4, 0.1 mM EDTA, 44 mN H2SO4, pH 7.4); c(s) in Sedfit; octamer to 8 monomers.

B1: Str enolase DB (Streptococcus pyogenes enolase, sequence of accession number NP_268959.1) (enzyme, UniProt P69949 1-435, looked up)
chain: MSIITDVYAREVLDSRGNPTLEVEVYTESGAFGRGMVPSGASTGEHEAVELRDGDKSRYLGLGTQKAVDNVNNIIAEAIIGYDVRDQQAIDRAMIALDGTPNKGKLGANAILGVSIAVARAAADYLEVPLYTYLGGFNTKVLPTPMMNIINGGSHSDAPIAFQEFMIMPVGAPTFKEGLRWGAEVFHALKKILKERGLVTAVGDEGGFAPKFEGTEDGVETILKAIEAAGYEAGENGIMIGFDCASSEFYDKERKVYDYTKFEGEGAAVRTSAEQVDYLEELVNKYPIITIEDGMDENDWDGWKVLTERLGKRVQLVGDDFFVTNTEYLARGIKENAANSILIKVNQIGTLTETFEAIEMAKEAGYTAVVSHRSGETEDSTIADIAVATNAGQIKTGSLSRTDRIAKYNQLLRIEDQLGEVAQYKGIKSFYNLKK
notes: PDB 3ZLH is the same protein with E77K; also called Streptococcal enolase; source: stored in saturated ammonium sulfate, dialyzed against TME-SO4
What is called stoichiometry N is a count of units in the complex or per binding partner. On to B1, for which the “stoichiometry N” value stood at 8.
